# Non-standard residues stand in square brackets, D forms with d. No end group written: not given here. Dip = N[C@H](C(=O)O)C(c1ccccc1)c1ccccc1
# Columns and labels:
# [1] = 20-30° C., protected from light; cited from earlier work
# [2] = Osmolality of LTX-315 drug product on storage (Ph. Eur. 2.2.35), Example 1.1; format: physicochemical; details: 20 mg/mL in WFI
# Experimental: (§1) • LTX-315=acetate salt of peptide with sequence K-K-W-W-K-K-W-Dip-K-NH2 20 mg/mL LTX-315 drug product was prepared by dissolving LTX-315 powder in WFI and filtered through a 0.22 μm sterile filter. 1 ml of the drug product was then filled into vials and sealed. The WFI complied to the Ph. Eur monograph 0169 for WFI. All product contact vials, glassware and peripherals were sterilised by depyrogenation in a hot air oven at 250° C. for 120 minutes after twice rinsing with WFI. Product contact tubing, stoppers and over-seals were twice rinsed with WFI then sterilised by autoclaving for >15 minutes at 121° C. then dried overnight in a drying oven. The vials were stored as set out in Table 1 below and analysed according to the listed parameters. Appearance was tested visually according to Ph.Eur 2.9.20 and osmolality according to Ph. Eur. 2.2.35. pH was tested according to Ph. Eur. 2.2.3. Colour and clarity were tested according to Ph. Eur 2.2.2 and Ph. Eur 2.2.1, respectively.
# [3] = pH of LTX-315 drug product on storage (Ph. Eur. 2.2.3), Example 1.1; format: physicochemical; details: 20 mg/mL in WFI
# Experimental: as §1
# [4] = Appearance of LTX-315 drug product in sealed vials on storage (visual, Ph.Eur 2.9.20), Example 1.1; format: physicochemical
# Experimental: as §1
# [5] = LTX-315 concentration after storage, reversed phase HPLC UV 220 nm, Example 1.2; format: physicochemical; details: for LTX-315 concentration, Vial 1 / LTX-315 concentration, Vial 2 / Mean content / Rec./T = 0 / Rec./theory (percentage of theoretical 20 mg/mL): 20 mg/mL in WFI
# Experimental: (§2) Drug product was prepared and stored as described in Example 1.1.
# (§3) Reversed phase HPLC, using a trifluoracetic acid (TFA) system and UV detection at 220 nm, was used to determine the amount of LTX-315 after storage of the vials in accordance with the storage conditions set out in Table 2.
# (§4) The column used was an RP C18, e.g. Waters Sunfire, 3.5 μm, 4.6×150 mm. The LTX-315 concentration in the test sample solution was 0.5 mg/ml and the injection volume 10 μl. The gradient profile used is set out below and the flow rate was 1.2 mL/min.
# [6] = Purity/related substances after storage, HPLC, Example 1.3; format: physicochemical; details: 20 mg/mL in WFI
# Experimental: as §3, §4, §2
# HPLC analysis was performed as described in Example 1.2 to determine the concentration of LTX-315 and the amount of related substances, i.e. substances formed due to and thus related to the degradation of LTX-315 in the drug product.
molecule,measurement,setting,value
C[C@@H](O)[C@@H]1NC(=O)[C@H](CCCCN)NC(=O)[C@@H](Cc2c[nH]c3ccccc23)NC(=O)[C@H](Cc2ccccc2)NC(=O)[C@@H](NC(=O)[C@H](N)Cc2ccccc2)CSSC[C@@H](C(=O)N[C@H](CO)[C@@H](C)O)NC1=O [octreotide],Permitted storage time of liquid product,[1],up to 14 days
K-K-W-W-K-K-W-Dip-K-NH2 (KKWWKKW[Dip]K-NH2) [LTX-315],Osmolality,"[2]; 2-8° C., T = 6 months",133 mOsmkg^−1
same,Osmolality,"[2]; 2-8° C., T = 12 months",133 mOsmkg^−1
same,Osmolality,"[2]; 2-8° C., T = 24 months",132 mOsmkg^−1
same,Osmolality,"[2]; 25° C./60% RH, T = 6 months",133 mOsmkg^−1
same,Osmolality,[2]; Initial (T = 0),132 mOsmkg^−1
same,pH,"[3]; 2-8° C., T = 3 months",6.2
same,pH,"[3]; 2-8° C., T = 6 months",6.0
same,pH,"[3]; 2-8° C., T = 12 months",6.1
same,pH,"[3]; 2-8° C., T = 24 months",6.1
same,pH,"[3]; 25° C./60% RH, T = 3 months",6.2
same,pH,"[3]; 25° C./60% RH, T = 6 months",6.1
same,pH,[3]; Initial (T = 0),6.1
same,"Change in appearance, osmolality, pH, colour and clarity",[4]; 6 months at 25° C. with 60% RH in the dark,no change
same,"Change in appearance, osmolality, pH, colour and clarity",[4]; 24 months in the dark at 2-8° C.,no change
same,"LTX-315 concentration, Vial 1","[5]; 2-8° C., T = 1 month",20.548 mg/mL
same,"LTX-315 concentration, Vial 2","[5]; 2-8° C., T = 1 month",19.916 mg/mL
same,Mean content,"[5]; 2-8° C., T = 1 month",20.2 mg/mL
same,Rec./T = 0,"[5]; 2-8° C., T = 1 month",96.3%
same,Rec./theory (percentage of theoretical 20 mg/mL),"[5]; 2-8° C., T = 1 month",101.2%
same,"LTX-315 concentration, Vial 1","[5]; 2-8° C., T = 3 months",21.241 mg/mL
same,"LTX-315 concentration, Vial 2","[5]; 2-8° C., T = 3 months",21.276 mg/mL
same,Mean content,"[5]; 2-8° C., T = 3 months",21.2 mg/mL
same,Rec./T = 0,"[5]; 2-8° C., T = 3 months",101.1%
same,Rec./theory (percentage of theoretical 20 mg/mL),"[5]; 2-8° C., T = 3 months",106.3%
same,"LTX-315 concentration, Vial 1","[5]; 2-8° C., T = 6 months",20.979 mg/mL
same,"LTX-315 concentration, Vial 2","[5]; 2-8° C., T = 6 months",21.027 mg/mL
same,Mean content,"[5]; 2-8° C., T = 6 months",21.0 mg/mL
same,Rec./T = 0,"[5]; 2-8° C., T = 6 months",99.9%
same,Rec./theory (percentage of theoretical 20 mg/mL),"[5]; 2-8° C., T = 6 months",105.0%
same,"LTX-315 concentration, Vial 1","[5]; 2-8° C., T = 9 months",20.311 mg/mL
same,"LTX-315 concentration, Vial 2","[5]; 2-8° C., T = 9 months",20.631 mg/mL
same,Mean content,"[5]; 2-8° C., T = 9 months",20.4 mg/mL
same,Rec./T = 0,"[5]; 2-8° C., T = 9 months",97.4%
same,Rec./theory (percentage of theoretical 20 mg/mL),"[5]; 2-8° C., T = 9 months",102.4%
same,"LTX-315 concentration, Vial 1","[5]; 2-8° C., T = 12 months",20.895 mg/mL
same,"LTX-315 concentration, Vial 2","[5]; 2-8° C., T = 12 months",20.631 mg/mL
same,Mean content,"[5]; 2-8° C., T = 12 months",20.7 mg/mL
same,Rec./T = 0,"[5]; 2-8° C., T = 12 months",98.8%
same,Rec./theory (percentage of theoretical 20 mg/mL),"[5]; 2-8° C., T = 12 months",103.8%
same,"LTX-315 concentration, Vial 1","[5]; 2-8° C., T = 18 months",19.204 mg/mL
same,"LTX-315 concentration, Vial 2","[5]; 2-8° C., T = 18 months",19.990 mg/mL
same,Mean content,"[5]; 2-8° C., T = 18 months",19.6 mg/mL
same,Rec./T = 0,"[5]; 2-8° C., T = 18 months",93.2%
same,Rec./theory (percentage of theoretical 20 mg/mL),"[5]; 2-8° C., T = 18 months",98.0%
same,"LTX-315 concentration, Vial 1","[5]; 2-8° C., T = 24 months",20.150 mg/mL
same,"LTX-315 concentration, Vial 2","[5]; 2-8° C., T = 24 months",19.669 mg/mL
same,Mean content,"[5]; 2-8° C., T = 24 months",19.9 mg/mL
same,Rec./T = 0,"[5]; 2-8° C., T = 24 months",94.7%
same,Rec./theory (percentage of theoretical 20 mg/mL),"[5]; 2-8° C., T = 24 months",99.5%
same,"LTX-315 concentration, Vial 1","[5]; 25° C./60% RH, T = 1 month",20.269 mg/mL
same,"LTX-315 concentration, Vial 2","[5]; 25° C./60% RH, T = 1 month",20.194 mg/mL
same,Mean content,"[5]; 25° C./60% RH, T = 1 month",20.2 mg/mL
same,Rec./T = 0,"[5]; 25° C./60% RH, T = 1 month",96.2%
same,Rec./theory (percentage of theoretical 20 mg/mL),"[5]; 25° C./60% RH, T = 1 month",101.2%
same,"LTX-315 concentration, Vial 1","[5]; 25° C./60% RH, T = 3 months",20.897 mg/mL
same,"LTX-315 concentration, Vial 2","[5]; 25° C./60% RH, T = 3 months",20.222 mg/mL
same,Mean content,"[5]; 25° C./60% RH, T = 3 months",20.5 mg/mL
same,Rec./T = 0,"[5]; 25° C./60% RH, T = 3 months",97.8%
same,Rec./theory (percentage of theoretical 20 mg/mL),"[5]; 25° C./60% RH, T = 3 months",102.8%
same,"LTX-315 concentration, Vial 1","[5]; 25° C./60% RH, T = 6 months",20.575 mg/mL
same,"LTX-315 concentration, Vial 2","[5]; 25° C./60% RH, T = 6 months",20.215 mg/mL
same,Mean content,"[5]; 25° C./60% RH, T = 6 months",20.3 mg/mL
same,Rec./T = 0,"[5]; 25° C./60% RH, T = 6 months",97.0%
same,Rec./theory (percentage of theoretical 20 mg/mL),"[5]; 25° C./60% RH, T = 6 months",102.0%
same,"LTX-315 concentration, Vial 1",[5]; Initial (T = 0),21.068 mg/mL
same,"LTX-315 concentration, Vial 2",[5]; Initial (T = 0),20.978 mg/mL
same,Mean content,[5]; Initial (T = 0),21.0 mg/mL
same,Rec./theory (percentage of theoretical 20 mg/mL),[5]; Initial (T = 0),105.1%
same,Change in LTX-315 concentration,"[5]; 2-8° C., 24 months",very slight decrease
same,Concentration of LTX-315 versus T=0,"[5]; 25° C. with 60% relative humidity, six months",the same as the concentration at T=0
same,Total related substances (sum of related substances >0.05%),"[6]; 2-8° C., 1 M",1.31 area %
same,Total related substances (sum of related substances >0.05%),"[6]; 2-8° C., 3 M",1.32 area %
same,Total related substances (sum of related substances >0.05%),"[6]; 2-8° C., 6 M",0.98 area %
same,Total related substances (sum of related substances >0.05%),"[6]; 2-8° C., 9 M",1.54 area %
same,Total related substances (sum of related substances >0.05%),"[6]; 2-8° C., 12 M",1.34 area %
same,Total related substances (sum of related substances >0.05%),"[6]; 2-8° C., 18 M",1.37 area %
same,Total related substances (sum of related substances >0.05%),"[6]; 2-8° C., 24 M",1.64 area %
same,Total related substances (sum of related substances >0.05%),"[6]; 2-8° C., Initial (T = 0)",0.88 area %
same,Total related substances (sum of related substances >0.05%),"[6]; 25° C./60% RH, 1 M",1.55 area %
same,Total related substances (sum of related substances >0.05%),"[6]; 25° C./60% RH, 3 M",1.97 area %
same,Total related substances (sum of related substances >0.05%),"[6]; 25° C./60% RH, 6 M",2.31 area %
same,Total related substances (sum of related substances >0.05%),"[6]; 25° C./60% RH, Initial (T = 0)",0.88 area %

# Source: patent US20260207700A1, “MEDICAL PRODUCTS CONTAINING AN AQUEOUS FORMULATION OF A PEPTIDE” (LYTIX BIOPHARMA AS, priority 2022, published 2026)
